# Results reported in patent publication US20230044381A1 (GUANGDONG FEIPENG PHARMACEUTICAL, published 2023).
# T1: Human ICOS-hFc (human, UniProt Q9Y6W8 21-140)
# T1 construct: Bought (ACRO); also called ICOS (ACRO)
# T1 sequence (looked up): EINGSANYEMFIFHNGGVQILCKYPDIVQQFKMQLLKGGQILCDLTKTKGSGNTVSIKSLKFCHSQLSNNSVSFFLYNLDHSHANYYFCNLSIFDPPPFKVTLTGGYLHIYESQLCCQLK
# T2: Human CTLA4-hFc (human, UniProt P16410 37-162)
# T2 construct: Bought (ACRO); also called CTLA-4 (ACRO)
# T2 sequence (looked up): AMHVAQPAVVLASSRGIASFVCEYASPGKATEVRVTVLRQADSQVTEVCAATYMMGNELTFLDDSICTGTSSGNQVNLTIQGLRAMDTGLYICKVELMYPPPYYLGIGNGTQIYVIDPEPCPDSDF
# T3: mouse PD1 on CHO cells (CHO-mousePD1) (mouse, UniProt Q02242 25-288)
# T3 construct: whole, on cells; also called CHO-mPD1
# T3 sequence (looked up): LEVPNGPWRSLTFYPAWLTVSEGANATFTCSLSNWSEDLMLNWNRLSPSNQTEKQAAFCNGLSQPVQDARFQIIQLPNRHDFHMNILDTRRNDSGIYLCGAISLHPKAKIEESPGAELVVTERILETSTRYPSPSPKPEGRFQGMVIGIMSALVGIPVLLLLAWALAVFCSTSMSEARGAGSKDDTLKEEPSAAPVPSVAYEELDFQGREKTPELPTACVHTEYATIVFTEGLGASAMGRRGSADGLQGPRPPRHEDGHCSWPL
# B1: PD-1-97-C2 (antibody, V domains shown)
# VH: EVKLVESGGGLVKPGGSLKLSCAASGFTFSSYGMSWIRQTPEKRLEWVATISGGGRDSYYPDSMKGRFAISRDNAKNNLYLQMSSLRSEDTALYYCTRQLGPAWFAYWGQGTLVTVSA
# VL: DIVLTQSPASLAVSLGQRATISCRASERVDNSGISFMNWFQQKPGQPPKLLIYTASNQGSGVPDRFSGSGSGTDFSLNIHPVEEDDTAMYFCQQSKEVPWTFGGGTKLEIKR
# notes: Mouse monoclonal antibody from a hybridoma; also called hybridoma clone 97
# B2: PD-1-76-C2 (antibody, V domains shown)
# VH: QIQLVQSGPELKKPGETVKISCKASGYTFTNYGMNWVKQAPGKGLKWMGWINTHTGEPTYADDFKGRFAFSLETSASTAYLQIKNLKNEDVATYFCTKEGEGIGFAYWGQGTLVTVSA
# VL: DVLMTQTPLSLPVSLGDQASISCRSSQSIVYSNGKTYLEWYLQKPGQSPKLLIYKVSNRFSGVPDRFSGSGSGTDFTLKISRVEAEDLGVYYCFQGSHVPNTFGGGTKLEIKR
# notes: Mouse monoclonal antibody from a hybridoma; also called PD-76-C2; PD-1-76-02
# B3: PD-1-112-C2 (antibody, V domains shown)
# VH: QVQLQQPGAELVKPGASVKLSCKASGYTFTTYYMYWVKQRPGQGLEWIGGINPSNGGTNFNEKFKSKATLTVDKSSSTAYMQLSSLTSEDSAVYYCTRRDSNYDGGFDYWGQGTTLTVSS
# VL: DIVLTQSPASLAVSLGQRATISCRASKSVSTSGYSYMHWYQQKPGQPPKLLIYLAYHLESGVPARFSGSGSGTDFTLNIHPVEEEDAATYYCQHSWELPITFGSGTKLEIKR
# notes: Mouse monoclonal antibody from a hybridoma; also called hybridoma clone 112
# Target: T4, human PD-1 on the cell surface (CHO-hPD1 cells; PHA-activated human PBMC) (human, UniProt Q15116 25-288)
# T4 construct: whole, on cells; the assay field tells which; also called CHO-PD1
# T4 sequence (Q15116 25-288): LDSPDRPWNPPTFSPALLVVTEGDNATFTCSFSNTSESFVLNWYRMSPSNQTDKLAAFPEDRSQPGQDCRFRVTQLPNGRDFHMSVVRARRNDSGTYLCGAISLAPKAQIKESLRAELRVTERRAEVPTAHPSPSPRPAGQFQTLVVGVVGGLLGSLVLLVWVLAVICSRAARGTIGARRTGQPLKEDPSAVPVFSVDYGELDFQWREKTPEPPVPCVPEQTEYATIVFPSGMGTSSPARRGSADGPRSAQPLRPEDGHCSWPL
# Assay: flow cytometry on PHA-activated human PBMC
# Procedure: After PBMC was obtained from fresh human peripheral blood by a lymphatic separation fluid gradient centrifugation method, the density was adjusted to 1×10⁶ cells/ml and then inoculated into T75. At the same time, PHA-L (Sigma) at a final concentration of 1 μg/ml was added to stimulate lymphocyte proliferation. After standing in an incubator supplied with 37° C. and 5% CO₂ for 3 days, cell suspension was taken out and centrifuged to remove the supernatant. Cells were resuspended in a buffer (PBS containing 3% BSA), and added into a 96-well U-shaped plate at a density of 2*10⁵ cells/well. And then the anti-PD1 antibody that prepared for a total of 10 concentration gradients (started from 30 μg/ml, diluted in a 3-fold gradient) was added. After incubation at 4° C. for 30 minutes, the plate was centrifuged at 300 g for 5 minutes, cells were washed once with the buffer, A PE-labeled goat anti-human IgG fluorescent antibody (Biolegend) was added, and incubated at 4° C. for 30 minutes; after incubation, the cells were washed once by centrifugation resuspended in PBS, and analyzed by a CytoFlex flow cytometer, to detect the amount of the antibody bound to PBMC.
row,Binder,EC50 [nM]
1,B1,1.03
2,B2,0.02
3,B3,0.109

# Target: T4, human PD-1 on the cell surface …
# Assay: flow cytometry on CHO-hPD1 cells
# Procedure: (§1) In order to evaluate binding of the anti-PD-1 mouse monoclonal antibody to CHO-hPD1, 2×10⁵ CHO-hPD1 cells and the anti-PD-1 mouse monoclonal antibody that diluted in a concentration gradient (the initial concentration was […], 3-fold serial dilution) were added to a 96-well plate. then it was incubated at 4° C. for 30 minutes. After the cells were washed once with a buffer (PBS containing 3% bovine serum albumin (BSA)), PE-labeled anti-mouse IgG(Fc) Ab (Biolegend) fluorescent secondary antibody was added, it was incubated at 4° C. for another 30 minutes. the cells were washed once with the buffer and resuspended in PBS, and then cell suspension was analyzed through flow cytometry by CytoFlex (Beckman flow cytometer), the amount of the antibody bound to the cells was measured according to the mean fluorescence intensity (MFI); the same method was used to evaluate binding of anti-PD-1 mouse monoclonal antibody to a CHO-cyno cell, and a CHO-mousePD1 (sometimes abbreviated as “CHO-mPD1” in the present invention) cell.
row,Binder,EC50 [nM]
1,B1,0.745
2,B2,0.583
3,B3,0.739

# Target: T1, Human ICOS-hFc
# Assay: ELISA, antigen coated at 1 µg/ml, antibody 10 µg/ml
# Procedure: (§2) To verify the specificity of the antibody binding to PD-1, the binding assay of anti-PD-1 mouse monoclonal antibody with four different CD28 family member proteins was conducted. […] Anti-mouse IgG coupled with peroxidase (HRP) was used as a secondary antibody (Sigma). The color was developed by TMB, and after reaction termination, the absorbance was read by a microplate reader.
row,Binder,OD value [OD]
1,B1,0.0636
2,B2,0.076
3,B3,0.062

# Target: T2, Human CTLA4-hFc
# Assay: as above
# Procedure: as §2
row,Binder,OD value [OD]
1,B1,0.129
2,B2,0.146
3,B3,0.131

# Target: T5, Human CD28-hFc (human, UniProt P10747 19-152)
# T5 construct: Bought (ACRO); also called CD28 (ACRO)
# T5 sequence (P10747 19-152): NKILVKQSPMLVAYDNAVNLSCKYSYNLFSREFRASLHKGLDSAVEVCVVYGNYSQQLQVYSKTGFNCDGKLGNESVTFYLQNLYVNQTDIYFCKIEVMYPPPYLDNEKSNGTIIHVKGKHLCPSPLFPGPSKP
# Assay: as above
# Procedure: as §2
row,Binder,OD value [OD]
1,B1,0.0606
2,B2,0.0616
3,B3,0.0625

# Target: T6, Human PD-1-hFc (human, UniProt Q15116 25-167)
# T6 construct: Bought (ACRO); also called PD-1 (ACRO)
# T6 sequence (Q15116 25-167): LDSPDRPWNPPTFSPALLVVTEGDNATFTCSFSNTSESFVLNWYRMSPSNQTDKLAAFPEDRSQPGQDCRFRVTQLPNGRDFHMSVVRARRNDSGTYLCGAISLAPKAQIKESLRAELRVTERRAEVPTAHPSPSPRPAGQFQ
# Assay: as above
# Procedure: as §2
row,Binder,OD value [OD]
1,B1,2.37
2,B2,2.46
3,B3,2.12

# Target: T4, human PD-1 on the cell surface …
# Assay: flow cytometry, blocking of PD-L1-hFc (3 µg/ml) on CHO-hPD1 cells, mode 2 (antibody added first)
# Procedure: (§3) The ability of the anti-PD-1 mouse monoclonal antibody to block the binding of the ligand to CHO-hPD1 cells was analyzed by a flow cytometer.
# (§4) The plate was centrifuged at 300 g for 5 minutes, cells were washed once with a buffer, a PE-labeled goat anti-human IgG fluorescent antibody (Biolegend) was added, and incubated at 4° C. for 30 minutes. After the cells were washed once by centrifugation, the cells were resuspended in PBS, and then analyzed by a Cyto Flex flow cytometer, to detect the amount of the ligand protein bound to the cells, and the IC₅₀ value of the PD-1 antibody blocking was calculated.
row,Binder,IC50 [nM]
1,B1,1.62
2,B2,1.4
3,B3,1.55

# Target: T4, human PD-1 on the cell surface …
# Assay: flow cytometry, blocking of PD-L1-hFc (3 µg/ml) on CHO-hPD1 cells, mode 1 (ligand added first)
# Procedure: as §3, §4
row,Binder,IC50 [nM]
1,B1,2.22
2,B2,2.28
3,B3,2.57

# Target: T3, mouse PD1 on CHO cells (CHO-mousePD1)
# Assay: flow cytometry on CHO-mousePD1 cells
# Procedure: as §1
row,Binder,binding result
1,B1,no binding
2,B2,no binding
3,B3,no binding

# Target: T4, human PD-1 on the cell surface …
# Assay: flow cytometry, blocking of PD-L2-hFc (3 µg/ml) on CHO-hPD1 cells, mode 2 (antibody added first)
# Procedure: as §3, §4
row,Binder,IC50 [nM]
1,B1,3.49
2,B2,3.11
3,B3,3.73

# Target: T7, monkey PD1 on CHO cells (CHO-cynoPD1) (monkey)
# T7 construct: whole, on cells
# Assay: flow cytometry on CHO-cynoPD1 cells
# Procedure: as §1
row,Binder,EC50 [nM]
1,B1,0.578
2,B2,0.576
3,B3,0.463

# Target: T1, Human ICOS-hFc
# Assay: ELISA, antigen coated at 1 µg/ml
# Procedure: as §2
row,Binder,binding result
1,B1,no binding (tested: 10 µg/ml)
2,B2,no binding (tested: 10 µg/ml)
3,B3,no binding (tested: 10 µg/ml)

# Target: T2, Human CTLA4-hFc
# Assay: ELISA, antigen coated at 1 µg/ml
# Procedure: as §2
row,Binder,binding result
1,B1,no binding (tested: 10 µg/ml)
2,B2,no binding (tested: 10 µg/ml)
3,B3,no binding (tested: 10 µg/ml)

# Target: T5, Human CD28-hFc
# Assay: ELISA, antigen coated at 1 µg/ml
# Procedure: as §2
row,Binder,binding result
1,B1,no binding (tested: 10 µg/ml)
2,B2,no binding (tested: 10 µg/ml)
3,B3,no binding (tested: 10 µg/ml)

# Target: T8, PD-1-his (ACRO) recombinant protein (UniProt Q15116 25-167)
# T8 construct: Bought (ACRO); loaded on a HIS1K biosensor
# T8 sequence (Q15116 25-167 limits assumed): as the sequence (Q15116 25-167) above
# Assay: BLI (ForteBio Octet), PD-1-his loaded on HIS1K sensor, antibody in solution
Binder,Kd [nM],koff [s⁻¹],kon [M⁻¹ s⁻¹]
B1,< 0.001,< 1e-07,468000
B2,< 0.001,< 1e-07,771000
B3,0.0435,3.18e-05,732000

# Target: T4, human PD-1 on the cell surface …
# Assay: flow cytometry, blocking of PD-L2-hFc (3 µg/ml) on CHO-hPD1 cells, mode 1 (ligand added first)
# Procedure: as §3, §4
row,Binder,IC50 [nM]
1,B1,7.54
2,B2,4.67
3,B3,4.61
